T1: FcγRIIb extracellular domain with C-terminal His tag (human, UniProt P31994 43-217)
T1 construct: extracellular domain; expressed in FreeStyle293 cells; analyte in the Biacore assay; also called FcgRIIb; 2b; not shown: His tag at the C terminus
T1 sequence (looked up): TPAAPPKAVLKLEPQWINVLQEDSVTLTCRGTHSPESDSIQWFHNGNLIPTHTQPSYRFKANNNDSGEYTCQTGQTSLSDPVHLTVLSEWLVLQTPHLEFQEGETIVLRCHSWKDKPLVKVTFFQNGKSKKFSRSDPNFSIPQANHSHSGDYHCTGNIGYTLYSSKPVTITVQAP


Molecular target: T1, FcγRIIb extracellular domain with …
Assay: SPR (Biacore), captured antibody, FcγRIIb analyte; binding relative to GpH7-B3/GpL16-k0 = 100

| Binder | Ho/Con_2b |
| --- | --- |
| GpH7-B3 variant G236_10E/GpL16-k0 (antibody, human IgG1, kappa, homodimerized; mutation in both H chains; also called Ho Ab G236_10E) heavy: not shown light: DIVMTQSPLSLPVTPGEPASISCQASESLVHSNRNTYLHWYLQKPGQSPQLLIYKVSNRFSGVPDRFSGSGSGTDFTLKISRVEAEDVGVYYCSQNTHVPPTFGQGTKVEIERTVAAPSVFIFPPSDEQLKSGTASVVCLLNNFYPREAKVQWKVDNALQSGNSQESVTEQDSKDSTYSLSSTLTLSKADYEKHKVYACEVTHQGLSSPVTKSFNRGEC | 114 % of control |
| GpH7-B3 variant I336_08L/GpL16-k0 (antibody, human IgG1, kappa, homodimerized; mutation in both H chains; also called Ho Ab I336_08L) heavy: not shown light: DIVMTQSPLSLPVTPGEPASISCQASESLVHSNRNTYLHWYLQKPGQSPQLLIYKVSNRFSGVPDRFSGSGSGTDFTLKISRVEAEDVGVYYCSQNTHVPPTFGQGTKVEIERTVAAPSVFIFPPSDEQLKSGTASVVCLLNNFYPREAKVQWKVDNALQSGNSQESVTEQDSKDSTYSLSSTLTLSKADYEKHKVYACEVTHQGLSSPVTKSFNRGEC | 103 % of control |
| GpH7-B3 variant G237_04F/GpL16-k0 (antibody, human IgG1, kappa, homodimerized; mutation in both H chains; also called Ho Ab G237_04F) heavy: not shown light: DIVMTQSPLSLPVTPGEPASISCQASESLVHSNRNTYLHWYLQKPGQSPQLLIYKVSNRFSGVPDRFSGSGSGTDFTLKISRVEAEDVGVYYCSQNTHVPPTFGQGTKVEIERTVAAPSVFIFPPSDEQLKSGTASVVCLLNNFYPREAKVQWKVDNALQSGNSQESVTEQDSKDSTYSLSSTLTLSKADYEKHKVYACEVTHQGLSSPVTKSFNRGEC | 140 % of control |
| GpH7-B3 variant I332_04F/GpL16-k0 (antibody, human IgG1, kappa, homodimerized; mutation in both H chains; also called Ho Ab I332_04F) heavy: not shown light: DIVMTQSPLSLPVTPGEPASISCQASESLVHSNRNTYLHWYLQKPGQSPQLLIYKVSNRFSGVPDRFSGSGSGTDFTLKISRVEAEDVGVYYCSQNTHVPPTFGQGTKVEIERTVAAPSVFIFPPSDEQLKSGTASVVCLLNNFYPREAKVQWKVDNALQSGNSQESVTEQDSKDSTYSLSSTLTLSKADYEKHKVYACEVTHQGLSSPVTKSFNRGEC | 117 % of control |
| GpH7-B3 variant H268_13S/GpL16-k0 (antibody, human IgG1, kappa, homodimerized; mutation in both H chains; also called Ho Ab H268_13S) heavy: not shown light: DIVMTQSPLSLPVTPGEPASISCQASESLVHSNRNTYLHWYLQKPGQSPQLLIYKVSNRFSGVPDRFSGSGSGTDFTLKISRVEAEDVGVYYCSQNTHVPPTFGQGTKVEIERTVAAPSVFIFPPSDEQLKSGTASVVCLLNNFYPREAKVQWKVDNALQSGNSQESVTEQDSKDSTYSLSSTLTLSKADYEKHKVYACEVTHQGLSSPVTKSFNRGEC | 186 % of control |
| GpH7-B3 variant K326_06M/GpL16-k0 (antibody, human IgG1, kappa, homodimerized; mutation in both H chains; also called Ho Ab K326_06M) heavy: not shown light: DIVMTQSPLSLPVTPGEPASISCQASESLVHSNRNTYLHWYLQKPGQSPQLLIYKVSNRFSGVPDRFSGSGSGTDFTLKISRVEAEDVGVYYCSQNTHVPPTFGQGTKVEIERTVAAPSVFIFPPSDEQLKSGTASVVCLLNNFYPREAKVQWKVDNALQSGNSQESVTEQDSKDSTYSLSSTLTLSKADYEKHKVYACEVTHQGLSSPVTKSFNRGEC | 193 % of control |
| GpH7-B3 variant K326_03V/GpL16-k0 (antibody, human IgG1, kappa, homodimerized; mutation in both H chains; also called Ho Ab K326_03V) heavy: not shown light: DIVMTQSPLSLPVTPGEPASISCQASESLVHSNRNTYLHWYLQKPGQSPQLLIYKVSNRFSGVPDRFSGSGSGTDFTLKISRVEAEDVGVYYCSQNTHVPPTFGQGTKVEIERTVAAPSVFIFPPSDEQLKSGTASVVCLLNNFYPREAKVQWKVDNALQSGNSQESVTEQDSKDSTYSLSSTLTLSKADYEKHKVYACEVTHQGLSSPVTKSFNRGEC | 184 % of control |
| GpH7-B3 variant I332_06M/GpL16-k0 (antibody, human IgG1, kappa, homodimerized; mutation in both H chains; also called Ho Ab I332_06M) heavy: not shown light: DIVMTQSPLSLPVTPGEPASISCQASESLVHSNRNTYLHWYLQKPGQSPQLLIYKVSNRFSGVPDRFSGSGSGTDFTLKISRVEAEDVGVYYCSQNTHVPPTFGQGTKVEIERTVAAPSVFIFPPSDEQLKSGTASVVCLLNNFYPREAKVQWKVDNALQSGNSQESVTEQDSKDSTYSLSSTLTLSKADYEKHKVYACEVTHQGLSSPVTKSFNRGEC | 106 % of control |
| GpH7-B3 variant I332_15Y/GpL16-k0 (antibody, human IgG1, kappa, homodimerized; mutation in both H chains; also called Ho Ab I332_15Y) heavy: not shown light: DIVMTQSPLSLPVTPGEPASISCQASESLVHSNRNTYLHWYLQKPGQSPQLLIYKVSNRFSGVPDRFSGSGSGTDFTLKISRVEAEDVGVYYCSQNTHVPPTFGQGTKVEIERTVAAPSVFIFPPSDEQLKSGTASVVCLLNNFYPREAKVQWKVDNALQSGNSQESVTEQDSKDSTYSLSSTLTLSKADYEKHKVYACEVTHQGLSSPVTKSFNRGEC | 109 % of control |
| GpH7-B3 variant H268_09D/GpL16-k0 (antibody, human IgG1, kappa, homodimerized; mutation in both H chains; also called Ho Ab H268_09D) heavy: not shown light: DIVMTQSPLSLPVTPGEPASISCQASESLVHSNRNTYLHWYLQKPGQSPQLLIYKVSNRFSGVPDRFSGSGSGTDFTLKISRVEAEDVGVYYCSQNTHVPPTFGQGTKVEIERTVAAPSVFIFPPSDEQLKSGTASVVCLLNNFYPREAKVQWKVDNALQSGNSQESVTEQDSKDSTYSLSSTLTLSKADYEKHKVYACEVTHQGLSSPVTKSFNRGEC | 298 % of control |
| GpH7-B3 variant I332_14T/GpL16-k0 (antibody, human IgG1, kappa, homodimerized; mutation in both H chains; label printed T332_14T, read as I332_14T; also called Ho Ab I332_14T) heavy: not shown light: DIVMTQSPLSLPVTPGEPASISCQASESLVHSNRNTYLHWYLQKPGQSPQLLIYKVSNRFSGVPDRFSGSGSGTDFTLKISRVEAEDVGVYYCSQNTHVPPTFGQGTKVEIERTVAAPSVFIFPPSDEQLKSGTASVVCLLNNFYPREAKVQWKVDNALQSGNSQESVTEQDSKDSTYSLSSTLTLSKADYEKHKVYACEVTHQGLSSPVTKSFNRGEC | 106 % of control |
| GpH7-B3 variant K326_10E/GpL16-k0 (antibody, human IgG1, kappa, homodimerized; mutation in both H chains; also called Ho Ab K326_10E) heavy: not shown light: DIVMTQSPLSLPVTPGEPASISCQASESLVHSNRNTYLHWYLQKPGQSPQLLIYKVSNRFSGVPDRFSGSGSGTDFTLKISRVEAEDVGVYYCSQNTHVPPTFGQGTKVEIERTVAAPSVFIFPPSDEQLKSGTASVVCLLNNFYPREAKVQWKVDNALQSGNSQESVTEQDSKDSTYSLSSTLTLSKADYEKHKVYACEVTHQGLSSPVTKSFNRGEC | 237 % of control |
| GpH7-B3 variant K326_08L/GpL16-k0 (antibody, human IgG1, kappa, homodimerized; mutation in both H chains; also called Ho Ab K326_08L) heavy: not shown light: DIVMTQSPLSLPVTPGEPASISCQASESLVHSNRNTYLHWYLQKPGQSPQLLIYKVSNRFSGVPDRFSGSGSGTDFTLKISRVEAEDVGVYYCSQNTHVPPTFGQGTKVEIERTVAAPSVFIFPPSDEQLKSGTASVVCLLNNFYPREAKVQWKVDNALQSGNSQESVTEQDSKDSTYSLSSTLTLSKADYEKHKVYACEVTHQGLSSPVTKSFNRGEC | 168 % of control |
| GpH7-B3 variant K326_04F/GpL16-k0 (antibody, human IgG1, kappa, homodimerized; mutation in both H chains; also called Ho Ab K326_04F) heavy: not shown light: DIVMTQSPLSLPVTPGEPASISCQASESLVHSNRNTYLHWYLQKPGQSPQLLIYKVSNRFSGVPDRFSGSGSGTDFTLKISRVEAEDVGVYYCSQNTHVPPTFGQGTKVEIERTVAAPSVFIFPPSDEQLKSGTASVVCLLNNFYPREAKVQWKVDNALQSGNSQESVTEQDSKDSTYSLSSTLTLSKADYEKHKVYACEVTHQGLSSPVTKSFNRGEC | 160 % of control |
| GpH7-B3 variant H268_01G/GpL16-k0 (antibody, human IgG1, kappa, homodimerized; mutation in both H chains; also called Ho Ab H268_01G) heavy: not shown light: DIVMTQSPLSLPVTPGEPASISCQASESLVHSNRNTYLHWYLQKPGQSPQLLIYKVSNRFSGVPDRFSGSGSGTDFTLKISRVEAEDVGVYYCSQNTHVPPTFGQGTKVEIERTVAAPSVFIFPPSDEQLKSGTASVVCLLNNFYPREAKVQWKVDNALQSGNSQESVTEQDSKDSTYSLSSTLTLSKADYEKHKVYACEVTHQGLSSPVTKSFNRGEC | 158 % of control |
| GpH7-B3 variant I332_09D/GpL16-k0 (antibody, human IgG1, kappa, homodimerized; mutation in both H chains; also called Ho Ab I332_09D) heavy: not shown light: DIVMTQSPLSLPVTPGEPASISCQASESLVHSNRNTYLHWYLQKPGQSPQLLIYKVSNRFSGVPDRFSGSGSGTDFTLKISRVEAEDVGVYYCSQNTHVPPTFGQGTKVEIERTVAAPSVFIFPPSDEQLKSGTASVVCLLNNFYPREAKVQWKVDNALQSGNSQESVTEQDSKDSTYSLSSTLTLSKADYEKHKVYACEVTHQGLSSPVTKSFNRGEC | 182 % of control |
| GpH7-B3 variant G237_20W/GpL16-k0 (antibody, human IgG1, kappa, homodimerized; mutation in both H chains; also called Ho Ab G237_20W) heavy: not shown light: DIVMTQSPLSLPVTPGEPASISCQASESLVHSNRNTYLHWYLQKPGQSPQLLIYKVSNRFSGVPDRFSGSGSGTDFTLKISRVEAEDVGVYYCSQNTHVPPTFGQGTKVEIERTVAAPSVFIFPPSDEQLKSGTASVVCLLNNFYPREAKVQWKVDNALQSGNSQESVTEQDSKDSTYSLSSTLTLSKADYEKHKVYACEVTHQGLSSPVTKSFNRGEC | 166 % of control |
| GpH7-B3 variant H268_18N/GpL16-k0 (antibody, human IgG1, kappa, homodimerized; mutation in both H chains; also called Ho Ab H268_18N) heavy: not shown light: DIVMTQSPLSLPVTPGEPASISCQASESLVHSNRNTYLHWYLQKPGQSPQLLIYKVSNRFSGVPDRFSGSGSGTDFTLKISRVEAEDVGVYYCSQNTHVPPTFGQGTKVEIERTVAAPSVFIFPPSDEQLKSGTASVVCLLNNFYPREAKVQWKVDNALQSGNSQESVTEQDSKDSTYSLSSTLTLSKADYEKHKVYACEVTHQGLSSPVTKSFNRGEC | 179 % of control |
| GpH7-B3 variant H268_10E/GpL16-k0 (antibody, human IgG1, kappa, homodimerized; mutation in both H chains; also called Ho Ab H268_10E) heavy: not shown light: DIVMTQSPLSLPVTPGEPASISCQASESLVHSNRNTYLHWYLQKPGQSPQLLIYKVSNRFSGVPDRFSGSGSGTDFTLKISRVEAEDVGVYYCSQNTHVPPTFGQGTKVEIERTVAAPSVFIFPPSDEQLKSGTASVVCLLNNFYPREAKVQWKVDNALQSGNSQESVTEQDSKDSTYSLSSTLTLSKADYEKHKVYACEVTHQGLSSPVTKSFNRGEC | 275 % of control |
| GpH7-B3 variant I332_10E/GpL16-k0 (antibody, human IgG1, kappa, homodimerized; mutation in both H chains; also called Ho Ab I332_10E) heavy: not shown light: DIVMTQSPLSLPVTPGEPASISCQASESLVHSNRNTYLHWYLQKPGQSPQLLIYKVSNRFSGVPDRFSGSGSGTDFTLKISRVEAEDVGVYYCSQNTHVPPTFGQGTKVEIERTVAAPSVFIFPPSDEQLKSGTASVVCLLNNFYPREAKVQWKVDNALQSGNSQESVTEQDSKDSTYSLSSTLTLSKADYEKHKVYACEVTHQGLSSPVTKSFNRGEC | 181 % of control |
| GpH7-B3 variant K326_09D/GpL16-k0 (antibody, human IgG1, kappa, homodimerized; mutation in both H chains; also called Ho Ab K326_09D) heavy: not shown light: DIVMTQSPLSLPVTPGEPASISCQASESLVHSNRNTYLHWYLQKPGQSPQLLIYKVSNRFSGVPDRFSGSGSGTDFTLKISRVEAEDVGVYYCSQNTHVPPTFGQGTKVEIERTVAAPSVFIFPPSDEQLKSGTASVVCLLNNFYPREAKVQWKVDNALQSGNSQESVTEQDSKDSTYSLSSTLTLSKADYEKHKVYACEVTHQGLSSPVTKSFNRGEC | 240 % of control |

Source: patent publication US20180155451A1 (published 2018)
